Columns and labels:
Assay in all cases: IP/MS, LZTR1 wild type-FLAG, U87
URB1 = URB1 (human, UniProt O60287 1-2271)
Summary of the method: (§1)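 Gel slices were reduced with 5 mM DTT, alkylated with 11 mM IAA and digested overnight at 37° C. with trypsin. Peptides were analysed on an Orbitrap Fusion Tribrid by LC-MS/MS.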

KIAA1217 = KIAA1217 (human, UniProt Q5T5P2 1-1943, limits assumed)
Summary of the method: as §1

UBE4B = biological target: T1, UBE4B (human, UniProt O95155 1-1302, limits assumed)
T1 sequence (looked up): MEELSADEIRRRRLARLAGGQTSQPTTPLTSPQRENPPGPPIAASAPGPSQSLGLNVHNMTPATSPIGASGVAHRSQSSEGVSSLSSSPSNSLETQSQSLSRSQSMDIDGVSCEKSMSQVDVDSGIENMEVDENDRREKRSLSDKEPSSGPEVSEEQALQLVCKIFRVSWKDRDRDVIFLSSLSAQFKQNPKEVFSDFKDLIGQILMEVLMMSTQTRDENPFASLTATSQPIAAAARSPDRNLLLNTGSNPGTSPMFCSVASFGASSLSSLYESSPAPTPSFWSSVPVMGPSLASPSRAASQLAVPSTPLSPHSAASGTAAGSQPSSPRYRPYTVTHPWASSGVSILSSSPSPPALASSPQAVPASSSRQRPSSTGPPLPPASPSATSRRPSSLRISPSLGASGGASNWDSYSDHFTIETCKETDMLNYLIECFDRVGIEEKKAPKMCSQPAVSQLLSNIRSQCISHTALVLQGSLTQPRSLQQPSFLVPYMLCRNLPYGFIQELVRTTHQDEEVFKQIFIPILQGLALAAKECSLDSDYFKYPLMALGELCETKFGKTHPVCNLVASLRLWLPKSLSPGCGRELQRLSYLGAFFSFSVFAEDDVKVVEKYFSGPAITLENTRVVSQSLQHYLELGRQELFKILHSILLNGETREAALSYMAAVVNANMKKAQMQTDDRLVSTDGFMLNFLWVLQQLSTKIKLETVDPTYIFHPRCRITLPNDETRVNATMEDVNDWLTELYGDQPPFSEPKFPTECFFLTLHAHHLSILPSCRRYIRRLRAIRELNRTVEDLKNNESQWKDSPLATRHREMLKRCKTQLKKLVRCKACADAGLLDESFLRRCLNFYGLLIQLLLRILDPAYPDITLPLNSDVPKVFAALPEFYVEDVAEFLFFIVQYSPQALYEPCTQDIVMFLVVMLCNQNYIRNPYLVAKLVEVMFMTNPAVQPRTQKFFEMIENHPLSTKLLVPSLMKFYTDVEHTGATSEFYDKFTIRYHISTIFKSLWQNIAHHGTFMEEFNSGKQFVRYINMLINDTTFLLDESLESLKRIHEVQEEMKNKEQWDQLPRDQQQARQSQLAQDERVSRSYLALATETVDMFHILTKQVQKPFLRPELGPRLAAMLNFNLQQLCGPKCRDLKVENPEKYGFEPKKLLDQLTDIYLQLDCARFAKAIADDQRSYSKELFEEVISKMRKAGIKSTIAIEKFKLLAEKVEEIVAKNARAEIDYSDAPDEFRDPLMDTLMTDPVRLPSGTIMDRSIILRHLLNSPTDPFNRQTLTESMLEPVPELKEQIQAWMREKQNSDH
Summary of the method: as §1

Measured: binding result

Sequence of KIAA1217 (Q5T5P2 whole entry): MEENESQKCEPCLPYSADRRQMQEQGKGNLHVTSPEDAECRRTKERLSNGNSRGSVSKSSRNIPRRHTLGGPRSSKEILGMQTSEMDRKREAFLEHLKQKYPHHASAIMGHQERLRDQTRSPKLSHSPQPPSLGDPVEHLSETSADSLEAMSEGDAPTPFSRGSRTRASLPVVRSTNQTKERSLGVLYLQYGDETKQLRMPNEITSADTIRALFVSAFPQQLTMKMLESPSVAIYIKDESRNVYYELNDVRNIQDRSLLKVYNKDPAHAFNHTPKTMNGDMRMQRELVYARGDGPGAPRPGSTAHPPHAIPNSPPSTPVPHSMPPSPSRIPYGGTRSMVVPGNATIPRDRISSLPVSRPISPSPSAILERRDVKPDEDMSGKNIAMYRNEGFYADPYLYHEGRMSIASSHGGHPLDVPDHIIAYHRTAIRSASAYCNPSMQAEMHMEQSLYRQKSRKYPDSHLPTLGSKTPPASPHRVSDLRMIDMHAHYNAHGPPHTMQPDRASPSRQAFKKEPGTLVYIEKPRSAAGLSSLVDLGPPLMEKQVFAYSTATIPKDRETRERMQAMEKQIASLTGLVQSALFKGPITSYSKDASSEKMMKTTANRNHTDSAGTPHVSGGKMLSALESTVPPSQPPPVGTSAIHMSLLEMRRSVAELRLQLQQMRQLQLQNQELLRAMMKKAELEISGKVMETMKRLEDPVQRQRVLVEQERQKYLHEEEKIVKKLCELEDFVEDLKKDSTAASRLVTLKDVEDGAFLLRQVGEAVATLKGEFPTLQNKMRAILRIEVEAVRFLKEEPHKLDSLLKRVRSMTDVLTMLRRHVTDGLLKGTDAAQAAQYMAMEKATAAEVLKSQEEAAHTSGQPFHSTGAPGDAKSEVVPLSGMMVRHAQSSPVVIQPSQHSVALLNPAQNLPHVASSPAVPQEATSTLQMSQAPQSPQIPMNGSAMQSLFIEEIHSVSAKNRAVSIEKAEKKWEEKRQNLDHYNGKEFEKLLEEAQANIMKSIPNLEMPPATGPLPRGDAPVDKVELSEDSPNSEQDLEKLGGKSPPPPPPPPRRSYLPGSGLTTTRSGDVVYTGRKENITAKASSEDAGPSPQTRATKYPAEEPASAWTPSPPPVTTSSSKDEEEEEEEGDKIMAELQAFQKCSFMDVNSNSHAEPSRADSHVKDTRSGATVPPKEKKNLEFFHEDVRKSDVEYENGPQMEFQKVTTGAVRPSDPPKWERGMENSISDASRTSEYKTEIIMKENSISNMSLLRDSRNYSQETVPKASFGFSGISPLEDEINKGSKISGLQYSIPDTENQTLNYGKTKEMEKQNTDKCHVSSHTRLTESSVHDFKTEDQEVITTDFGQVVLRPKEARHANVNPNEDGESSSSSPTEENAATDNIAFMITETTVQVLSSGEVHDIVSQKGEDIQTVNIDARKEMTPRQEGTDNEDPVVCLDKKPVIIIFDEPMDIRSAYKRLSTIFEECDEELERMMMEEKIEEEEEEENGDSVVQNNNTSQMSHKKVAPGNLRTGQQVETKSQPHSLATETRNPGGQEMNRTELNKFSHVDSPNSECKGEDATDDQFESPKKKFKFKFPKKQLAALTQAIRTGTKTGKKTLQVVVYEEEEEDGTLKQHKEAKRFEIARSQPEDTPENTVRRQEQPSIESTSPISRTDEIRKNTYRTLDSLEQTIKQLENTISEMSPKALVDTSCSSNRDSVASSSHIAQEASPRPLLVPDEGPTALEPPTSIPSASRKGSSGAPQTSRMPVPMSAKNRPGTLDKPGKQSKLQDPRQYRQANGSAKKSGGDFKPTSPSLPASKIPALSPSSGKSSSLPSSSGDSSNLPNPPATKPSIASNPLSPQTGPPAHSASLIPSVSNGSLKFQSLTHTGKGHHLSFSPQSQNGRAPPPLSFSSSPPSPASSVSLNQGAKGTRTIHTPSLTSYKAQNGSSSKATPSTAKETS
Sequence of URB1 (O60287 whole entry, the tested form may be a part): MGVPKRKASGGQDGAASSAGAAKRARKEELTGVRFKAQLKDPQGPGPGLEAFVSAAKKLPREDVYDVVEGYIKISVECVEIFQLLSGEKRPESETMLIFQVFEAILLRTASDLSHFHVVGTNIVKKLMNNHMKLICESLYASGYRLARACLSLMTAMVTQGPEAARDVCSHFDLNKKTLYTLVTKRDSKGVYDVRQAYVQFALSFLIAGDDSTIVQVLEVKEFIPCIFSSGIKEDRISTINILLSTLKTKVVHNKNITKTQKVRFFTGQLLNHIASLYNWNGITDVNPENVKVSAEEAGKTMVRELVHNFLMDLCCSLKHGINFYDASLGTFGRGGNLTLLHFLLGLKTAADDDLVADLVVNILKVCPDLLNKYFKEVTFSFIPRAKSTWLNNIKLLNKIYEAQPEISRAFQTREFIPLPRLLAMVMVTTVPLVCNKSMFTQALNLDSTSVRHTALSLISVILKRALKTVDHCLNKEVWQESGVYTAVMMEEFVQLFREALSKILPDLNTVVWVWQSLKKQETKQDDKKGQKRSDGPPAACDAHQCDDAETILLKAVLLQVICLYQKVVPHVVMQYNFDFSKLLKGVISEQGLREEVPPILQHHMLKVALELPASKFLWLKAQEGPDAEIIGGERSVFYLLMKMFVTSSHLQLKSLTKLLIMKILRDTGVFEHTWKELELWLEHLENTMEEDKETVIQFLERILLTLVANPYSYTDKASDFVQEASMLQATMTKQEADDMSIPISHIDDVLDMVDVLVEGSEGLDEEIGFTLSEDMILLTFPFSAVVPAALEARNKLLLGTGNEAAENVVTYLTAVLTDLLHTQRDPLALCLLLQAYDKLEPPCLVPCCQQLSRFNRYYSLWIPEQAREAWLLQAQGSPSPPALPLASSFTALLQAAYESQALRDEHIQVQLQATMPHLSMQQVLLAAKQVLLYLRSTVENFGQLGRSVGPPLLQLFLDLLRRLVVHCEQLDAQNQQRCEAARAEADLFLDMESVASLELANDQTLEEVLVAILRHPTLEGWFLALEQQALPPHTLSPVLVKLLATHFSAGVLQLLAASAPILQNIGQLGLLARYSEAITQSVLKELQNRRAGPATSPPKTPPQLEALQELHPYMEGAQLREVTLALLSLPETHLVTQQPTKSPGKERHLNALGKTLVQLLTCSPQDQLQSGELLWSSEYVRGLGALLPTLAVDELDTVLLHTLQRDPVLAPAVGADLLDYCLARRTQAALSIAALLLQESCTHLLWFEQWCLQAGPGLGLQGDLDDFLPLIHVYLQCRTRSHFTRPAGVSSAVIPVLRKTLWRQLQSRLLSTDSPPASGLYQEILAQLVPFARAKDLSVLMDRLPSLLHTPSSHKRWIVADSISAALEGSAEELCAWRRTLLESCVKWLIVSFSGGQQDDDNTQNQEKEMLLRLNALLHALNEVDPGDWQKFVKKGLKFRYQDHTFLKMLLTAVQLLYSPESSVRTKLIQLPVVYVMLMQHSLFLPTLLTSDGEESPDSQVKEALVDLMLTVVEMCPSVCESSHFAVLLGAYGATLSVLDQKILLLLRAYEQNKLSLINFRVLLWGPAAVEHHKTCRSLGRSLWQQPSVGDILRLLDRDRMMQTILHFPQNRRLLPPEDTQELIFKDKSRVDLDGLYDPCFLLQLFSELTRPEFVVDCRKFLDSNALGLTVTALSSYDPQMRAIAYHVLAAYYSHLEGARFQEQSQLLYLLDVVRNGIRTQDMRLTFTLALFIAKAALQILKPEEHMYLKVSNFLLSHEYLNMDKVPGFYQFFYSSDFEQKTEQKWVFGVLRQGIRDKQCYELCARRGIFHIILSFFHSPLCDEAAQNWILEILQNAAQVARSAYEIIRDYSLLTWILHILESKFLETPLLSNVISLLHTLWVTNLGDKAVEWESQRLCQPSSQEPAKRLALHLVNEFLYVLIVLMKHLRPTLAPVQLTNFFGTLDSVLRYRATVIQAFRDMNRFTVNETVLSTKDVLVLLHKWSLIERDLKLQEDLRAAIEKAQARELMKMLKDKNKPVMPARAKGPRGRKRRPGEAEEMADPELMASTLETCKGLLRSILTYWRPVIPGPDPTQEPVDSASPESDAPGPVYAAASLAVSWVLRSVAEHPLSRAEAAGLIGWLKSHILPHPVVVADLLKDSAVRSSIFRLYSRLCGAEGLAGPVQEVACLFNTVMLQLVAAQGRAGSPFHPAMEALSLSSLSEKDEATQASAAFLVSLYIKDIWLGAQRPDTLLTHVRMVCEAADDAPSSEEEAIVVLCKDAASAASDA

B1: LZTR1-FLAG (other, human, UniProt Q8N653 1-840, looked up)
chain: MAGPGSTGGQIGAAALAGGARSKVAPSVDFDHSCSDSVEYLTLNFGPFETVHRWRRLPPCDEFVGARRSKHTVVAYKDAIYVFGGDNGKTMLNDLLRFDVKDCSWCRAFTTGTPPAPRYHHSAVVYGSSMFVFGGYTGDIYSNSNLKNKNDLFEYKFATGQWTEWKIEGRLPVARSAHGATVYSDKLWIFAGYDGNARLNDMWTIGLQDRELTCWEEVAQSGEIPPSCCNFPVAVCRDKMFVFSGQSGAKITNNLFQFEFKDKTWTRIPTEHLLRGSPPPPQRRYGHTMVAFDRHLYVFGGAADNTLPNELHCYDVDFQTWEVVQPSSDSEVGGAEVPERACASEEVPTLTYEERVGFKKSRDVFGLDFGTTSAKQPTQPASELPSGRLFHAAAVISDAMYIFGGTVDNNIRSGEMYRFQFSCYPKCTLHEDYGRLWESRQFCDVEFVLGEKEECVQGHVAIVTARSRWLRRKITQARERLAQKLEQEAAPVPREAPGVAAGGARPPLLHVAIREAEARPFEVLMQFLYTDKIKYPRKGHVEDVLLIMDVYKLALSFQLCRLEQLCRQYIEASVDLQNVLVVCESAARLQLSQLKEHCLNFVVKESHFNQVIMMKEFERLSSPLIVEIVRRKQQPPPRTPLDQPVDIGTSLIQDMKAYLEGAGAEFCDITLLLDGHPRPAHKAILAARSSYFEAMFRSFMPEDGQVNISIGEMVPSRQAFESMLRYIYYGEVNMPPEDSLYLFAAPYYYGFYNNRLQAYCKQNLEMNVTVQNVLQILEAADKTQALDMKRHCLHIIVHQFTKVSKLPTLRSLSQQLLLDIIDSLASHISDKQCAELGADI
notes: Expressed in HEK 293T, HeLa or U87 cells; used as cell lysate; also called LZTR1 wild type-FLAG; LZTR1 WT; not shown: FLAG tag at the C-terminus
binds: all assays above
